Biological target: aquaporin-4 (AQP4) M1 isoform, expressed in HEK 293 cells (UniProt P55088-1 1-323)
Test: co-IP

Chain of aquaporin-4 (AQP4) M1 isoform, expressed in HEK 293 cells (P55088 whole entry, canonical isoform): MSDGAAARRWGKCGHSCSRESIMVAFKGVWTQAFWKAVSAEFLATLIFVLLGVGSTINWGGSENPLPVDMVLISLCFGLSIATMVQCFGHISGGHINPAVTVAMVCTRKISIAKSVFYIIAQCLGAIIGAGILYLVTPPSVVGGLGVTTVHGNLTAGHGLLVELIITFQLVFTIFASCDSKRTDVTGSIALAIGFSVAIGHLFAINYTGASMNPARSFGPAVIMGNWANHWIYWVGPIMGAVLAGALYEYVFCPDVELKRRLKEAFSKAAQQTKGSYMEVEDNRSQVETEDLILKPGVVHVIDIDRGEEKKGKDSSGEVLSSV

B1: TRPM4, expressed in HEK 293 cells (natural protein)
chain: not shown
  fold TRPM4 co-precipitated with AQP4 in SUR1+ cells against SUR1- cells: 4 fold

— article PMC5759053 (Glia, 2017)
